From patent publication US20240117018A1 come the findings set out here.

Holding throughout (test): cell-based or functional assay
Assay [1] has as its target Env of HIV-1 pseudovirus 191955_A11 (HIV-1).
Assay [2] concerns the target Env of HIV-1 pseudovirus Du172.17 (HIV-1).
For assay [3], the target named is Env of HIV-1 pseudovirus ZM135M.PL10a (HIV-1).
For assay [4], the target named is Env of HIV-1 pseudovirus Ce2060_G9 (HIV-1).
Assay [5] has as its target Env of HIV-1 pseudovirus BF1266.431a (HIV-1).
Assay [6] addresses Env of HIV-1 pseudovirus Ce704809221_1B3 (HIV-1).
For assay [7], the target named is Env of HIV-1 pseudovirus 7030102001E5(Rev-) (HIV-1).
Assay [8] has as its target Env of HIV-1 pseudovirus Q259.d2.17 (HIV-1).
For assay [9], the target named is Env of HIV-1 pseudovirus CNE19 (HIV-1).
Assay [10] addresses Env of HIV-1 pseudovirus CAP45.2.00.G3 (HIV-1).
The target in assay [11] is Env of HIV-1 pseudovirus CNE20 (HIV-1).
The target in assay [12] is Env of HIV-1 pseudovirus TRJO4551.58 (HIV-1).

With 10-1074 (antibody), the IC50 in assay [1] was more than 50 µg/mL; in assay [2], 0.121 µg/mL; in [3] it was 0.069 µg/mL; in assay [4] it was more than 50 µg/mL; in assay [5] it was more than 50 µg/mL; in assay [6] it was 0.139 µg/mL. Also, the IC50 in [7] was 0.006 µg/mL; in assay [8], more than 50 µg/mL; in [9], 50 µg/mL; in [10], more than 50 µg/mL; in assay [11] it was less than 0.001 µg/mL; in [12], 0.17 µg/mL. The IC80 is more than 50 µg/mL in assay [1]; 0.43 µg/mL in [2]; 0.367 µg/mL in [3]; more than 50 µg/mL in assay [4]; more than 50 µg/mL in assay [5]; 0.696 µg/mL in [6]. The IC80 in assay [7] is 0.021 µg/mL; in [8], more than 50 µg/mL; in [9], more than 50 µg/mL; in assay [10] it was more than 50 µg/mL; in [11] it was 0.005 µg/mL; in assay [12], 0.634 µg/mL.

For the substance PG9 (antibody), the IC50 in assay [1] stood at 0.053 µg/mL; in assay [2], 0.606 µg/mL; in assay [3], 20.6 µg/mL; in assay [4], 0.045 µg/mL; in assay [5], 0.026 µg/mL; in assay [6] it was 0.037 µg/mL. Besides, the IC50 was more than 50 µg/mL in [7]; 0.029 µg/mL in assay [8]; 0.024 µg/mL in assay [9]; 0.007 µg/mL in [10]; 0.052 µg/mL in [11]; 0.503 µg/mL in assay [12]. For the same substance, the IC80 in assay [1] is 0.154 µg/mL; in assay [2], 1.6 µg/mL; in assay [3], more than 50 µg/mL; in [4], 0.172 µg/mL; in assay [5], 0.088 µg/mL; in assay [6] it was 0.137 µg/mL. The IC80 in assay [7] was more than 50 µg/mL; in [8] it was 1.38 µg/mL; in [9] it was 0.146 µg/mL; in [10], 0.029 µg/mL; in assay [11], 0.278 µg/mL; in [12], 4.06 µg/mL.

Take PG16 (antibody): the IC50 in assay [1] was 0.009 µg/mL; in assay [2] it was 0.033 µg/mL; in assay [3], more than 50 µg/mL; in assay [4], 0.075 µg/mL; in assay [5] it was 0.003 µg/mL; in assay [6] it was 0.021 µg/mL. Moreover, the IC50 was more than 50 µg/mL in assay [7]; 0.065 µg/mL in assay [8]; 0.024 µg/mL in [9]; 0.001 µg/mL in assay [10]; 3.63 µg/mL in assay [11]; 1.01 µg/mL in assay [12]. For the same substance, the IC80 in assay [1] is 0.042 µg/mL; in assay [2] it was 0.213 µg/mL; in [3], more than 50 µg/mL; in [4], 1.71 µg/mL; in assay [5], 0.009 µg/mL; in [6] it was 0.116 µg/mL. In addition, the IC80 in assay [7] was more than 50 µg/mL; in [8], 45.9 µg/mL; in assay [9], 3.07 µg/mL; in assay [10], 0.003 µg/mL; in assay [11], 47.2 µg/mL; in [12], 24.5 µg/mL.

As to 10E8 (antibody), the IC50 in [1] is 0.68 µg/mL; in [2] it was 0.109 µg/mL; in [3], 0.171 µg/mL; in assay [4] it was 3.52 µg/mL; in assay [5] it was 2.69 µg/mL; in assay [6], 0.058 µg/mL. The IC50 was 6.71 µg/mL in assay [7]; 4.59 µg/mL in [8]; 0.666 µg/mL in assay [9]; 1.82 µg/mL in [10]; 1.25 µg/mL in assay [11]; 0.475 µg/mL in assay [12]. In addition, the IC80 in [1] was 3.53 µg/mL; in assay [2], 0.837 µg/mL; in assay [3], 1.19 µg/mL; in assay [4], more than 10 µg/mL; in assay [5], more than 10 µg/mL; in assay [6] it was 0.319 µg/mL. Further, the IC80 in [7] is more than 10 µg/mL; in assay [8], more than 10 µg/mL; in [9] it was 6.49 µg/mL; in assay [10], more than 10 µg/mL; in assay [11], 6.58 µg/mL; in assay [12] it was 4.78 µg/mL.

The IC50 is the concentration that inhibits the measured activity by half. Read a high IC50 as weaker potency in that assay. The IC80 is the concentration at which the effect reaches the 80% level. Low values mean an effect from little substance, high ones a need for much substance.
